According to US20250145729A1:
pKd: −log10 of the molar value.

Biological target: cyno CD98hc (cynomolgus monkey)
Assay: SPR (Biacore)

- pKd: 5.82
Substance: LLB2.C.1 (from UniProt P0DOX5 233-449) (Fc fusion)
